Reference: patent publication US20260193376A1

What was measured:
[1] = target: human coagulation Factor IX (human) (UniProt P00740); test: ITC, 37 °C, pH 7.4, antibody injected into FIX
[2] = target: human plasma-derived Factor IXa (human) (UniProt P00740); test: ITC, 37 °C, pH 7.4, antibody injected into FIXa
[3] = target: human coagulation Factor X (human) (UniProt P00742); test: ITC, 37 °C, pH 7.4, antibody injected into FX
[4] = target: human plasma-derived Factor IXa (human) (UniProt P00740); test: cell-based or functional assay
[5] = target: human plasma-derived Factor IXa (human) (UniProt P00740); test: FXa generation assay at eight OA antibody concentrations, fit to the quadratic binding equation

Chain of human plasma-derived Factor IXa (human) (P00740 47-191, chain 1 of 2): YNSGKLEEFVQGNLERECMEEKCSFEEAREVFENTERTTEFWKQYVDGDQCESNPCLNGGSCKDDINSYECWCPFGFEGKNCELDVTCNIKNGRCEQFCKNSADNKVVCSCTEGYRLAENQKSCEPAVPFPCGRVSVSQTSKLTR
Chain of human plasma-derived Factor IXa (human) (P00740 227-461, chain 2 of 2): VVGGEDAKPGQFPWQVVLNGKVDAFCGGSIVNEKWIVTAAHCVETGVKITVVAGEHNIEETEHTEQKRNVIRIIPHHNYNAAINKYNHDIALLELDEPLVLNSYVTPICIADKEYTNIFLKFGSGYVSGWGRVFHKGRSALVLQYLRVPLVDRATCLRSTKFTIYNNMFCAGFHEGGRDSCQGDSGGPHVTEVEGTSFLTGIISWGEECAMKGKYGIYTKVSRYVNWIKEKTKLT
Chain of human coagulation Factor IX (human) (P00740 47-461 T194A limits assumed): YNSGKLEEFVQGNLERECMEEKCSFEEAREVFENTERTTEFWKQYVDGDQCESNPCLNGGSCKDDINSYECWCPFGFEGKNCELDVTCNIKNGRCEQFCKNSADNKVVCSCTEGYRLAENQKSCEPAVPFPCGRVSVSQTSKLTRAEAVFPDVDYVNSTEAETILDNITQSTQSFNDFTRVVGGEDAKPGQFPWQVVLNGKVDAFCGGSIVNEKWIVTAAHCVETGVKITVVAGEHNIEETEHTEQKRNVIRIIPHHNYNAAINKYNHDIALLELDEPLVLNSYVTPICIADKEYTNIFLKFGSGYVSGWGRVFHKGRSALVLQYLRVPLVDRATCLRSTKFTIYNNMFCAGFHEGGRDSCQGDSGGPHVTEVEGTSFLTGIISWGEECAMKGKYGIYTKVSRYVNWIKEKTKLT
Chain of human coagulation Factor X (human) (P00742 41-179, chain 1 of 2): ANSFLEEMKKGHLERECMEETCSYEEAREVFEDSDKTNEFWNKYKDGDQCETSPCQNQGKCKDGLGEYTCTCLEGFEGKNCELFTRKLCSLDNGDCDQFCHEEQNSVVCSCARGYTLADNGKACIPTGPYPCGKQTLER
Chain of human coagulation Factor X (human) (P00742 183-488, chain 2 of 2): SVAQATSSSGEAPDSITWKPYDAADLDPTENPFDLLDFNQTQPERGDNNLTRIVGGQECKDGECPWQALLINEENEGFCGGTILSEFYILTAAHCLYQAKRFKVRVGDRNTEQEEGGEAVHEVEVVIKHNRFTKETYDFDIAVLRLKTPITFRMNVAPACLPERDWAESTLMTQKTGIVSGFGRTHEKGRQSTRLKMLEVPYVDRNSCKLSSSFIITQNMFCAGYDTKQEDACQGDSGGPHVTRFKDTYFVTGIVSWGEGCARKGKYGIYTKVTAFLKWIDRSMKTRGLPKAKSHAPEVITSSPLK

| Substance | Kd [1] | Kd [2] | Kd [3] | Maximum stimulation (fold), FXa generation assay with bispecific antibody; maximum at 10480 nM [4] | Stimulation Index, FXa generation assay, estimated at full FIXa saturation [4] | Kd [5] |
| --- | --- | --- | --- | --- | --- | --- |
| ACE910 (bispecific antibody) | 2.77 µM | 1.97 µM | 2.42 µM | 891 fold | – | – |
| one-armed (OA) ACE910 anti-FIXa antibody | – | – | – | – | 1370 fold | 1.1 µM |
